This note sets out measurements from paper PMC7708078, “How to limit the speed of a motor: the intricate regulation of the XPB ATPase and translocase in TFIIH” (Nucleic Acids Research, 2020).

In data set [1] the test system is ctXPB (Chaetomium thermophilum). The data set is described as follows: fluorescence polarization. The conditions noted are these: 20 mM HEPES pH 7.5, 10 mM KCl, 2.5 mM MgCl2, 1 mM TCEP, 6 nM DNA, room temperature. On the technique in general: Fluorescence polarisation rises when a labelled molecule tumbles more slowly, as on binding a larger partner.
Data set [2] deals with ctXPB;ctp52;ctp8 (Chaetomium thermophilum;Chaetomium thermophilum;Chaetomium thermophilum). The data set is described as follows: fluorescence polarization. The conditions noted are these: ctp52/ctp8 2:1 to ctXPB; Kd in nM XPB; 2.5 mM MgCl2, no ATP stated; 20 mM HEPES pH 7.5, 10 mM KCl, 2.5 mM MgCl2, 1 mM TCEP, 6 nM DNA, room temperature.
Data set [3] concerns the target ctXPB (from E. coli) (Chaetomium thermophilum).
For data set [4] the target is unchanged. This is another data set of the same source.
The target is the same in data set [5]. This is another data set of the same source.

In general, Kd refers to the equilibrium constant for the complex coming apart. Low values mean a tighter complex, high ones a looser complex. As for “AGCTACCATGCCTGCACGAATTAAGCAATTCGTAATCATGGTCATAGC (double strand) [Cy3-dsDNA 48 bp]”, the values for the Kd in data set [1] and in data set [2] were 77 nM and 51 nM, respectively.
In data set [3], ctp52 (natural protein) registered an ATPase activity of ctXPB on titration of the co-purified ctp52/ctp34 complex to a fixed amount of ctXPB (Vmax 9.3 μmol ATP*l^−1*min^−1); EC50 of 178 nM.
As for “ctp52/ctp8 complex (wild type, co-purified)”, in data set [3], the ATPase activity of ctXPB on titration of the co-purified ctp52/ctp8 complex to a fixed amount of ctXPB (full activation 20.1 μmol ATP*l^−1*min^−1); EC50 came to 153 nM. In data set [4], this substance registered a decrease of the dsDNA-activated ATPase activity of ctXPB (from 58.8 to 18.9 μmol ATP*l^−1*min^−1) on titration of ctp52/ctp8 to an equimolar ctXPB/DNA complex; EC50 of 138 nM.
In the case of ctp52_E359K/R363E / ctp8 complex, the activation of ctXPB's ATPase by the ctp52/ctp8 variant, percent of wild type ctp52/ctp8 (% of wild type) in data set [5] came out at 6.
Consider ctp52_E359K/ctp8 complex, for which the activation of ctXPB's ATPase by the ctp52/ctp8 variant, percent of wild type ctp52/ctp8 (% of wild type) in data set [5] worked out at 5.
Substance ctp52_F387K/ctp8 complex registered an activation of ctXPB's ATPase by the ctp52/ctp8 variant, percent of wild type ctp52/ctp8 (% of wild type) in data set [5] of 46.
For ctp52_M390E/ctp8 complex, the activation of ctXPB's ATPase by the ctp52/ctp8 variant, percent of wild type ctp52/ctp8 (% of wild type) in data set [5] is 57.
On to ctp52_R363E/ctp8 complex, for which the activation of ctXPB's ATPase by the ctp52/ctp8 variant, percent of wild type ctp52/ctp8 (% of wild type) in data set [5] was determined as 134.
On the same count and under the same terms, the result for ctp52_R386L/ctp8 complex reads 116.
On to ctp52_Y365A/ctp8 complex, for which the activation of ctXPB's ATPase by the ctp52/ctp8 variant, percent of wild type ctp52/ctp8 (% of wild type) in data set [5] was 53.
